B1: Clone 2 anti-PD-1 antibody (antibody, V domains shown)
VH: QVQLQQPGAELVKPGASVKLSCKASGYTFTTYYLYWVRQRPGQGLEWIGGINPSNGGTNFNEKFKSKATLTVDKSSSTAYMQLNSLTSEDSAVYYCTRRDYRYDRGFDYWGQGTSVTV
VL: DIVLTQSPASLAVSLGQRATISCRASKSVSTSGFNYIHWYQQKPGQPPKLLIYLASNLESGVPARFSGSGSGTDFTLNIHPVEDEDAATYYCQHSRELPLTFGAGTKLEIK
notes: The printed VH ends at ...GTSVT; also called hybridoma 08090903
B2: Clone 19 anti-PD-1 antibody (antibody, IgG1, V domains shown)
VH: QVQLQQSGAELVKPGASVKMSCKAFGYTFTTYPIEWMKQNHGKSLEWIGNFHPYNDDTKYNEKFKGKAKLTVEKSSTTVYLELSRLTSDDSAVYYCARENYGSHGGFVYWGQGTLVTV
VL: ENVLTQSPAIMSASPGEKVTMTCRASSSVISSYLHWYQQKSGASPKLWIYSTSNLASGVPDRFSGSGSGTSYSLTISSVEAEDAATYYCQQYNGYPLTFGAGTKLEIK
notes: the printed VH ends at ...GTLVTV; Constant regions are named only in an embodiment (GenBank D78344, V00807); also called monoclonal antibody produced by clone 19; hybridoma 08090901
B3: Clone 10 anti-PD-1 antibody (antibody, IgG1, V domains shown)
VH: DVQLQESGPGLVKPSQSLSLTCTVTGYSITSDYAWNWIRQFPGNKLEWMGYINYSGSTSYNPSLKSRISITRDTSKNQFFLQLNSVTTEDTATYYCARWIGSSAWYFDVWGAGTTVTV
VL: DVLMTQTPLSLPVSLGDQASISCRSGQNIVHSNGNTYLEWYLQKPGQSPKLLIYKVSNRFFGVPDRISGSGSGTDFTLKISRVEAEDLGVYFCFQGSHVPFTFGSGTKLEIK
notes: the printed VH ends at ...GTTVTV; also called hybridoma 08090902

Key:
[1] = target: T1, Monomeric soluble human PD-1 (human, UniProt Q15116 25-170, limits assumed); experiment: SPR, antibody captured by rabbit anti-mouse Fc, soluble PD-1 injected
T1 construct: also called soluble PD-1
Protocol: FIG. 12: Dissociation rates for Clone 2, 10 and 19 antibodies determined by surface plasmon resonance-based analysis. The three antibodies and a negative control (OX-7) were bound indirectly to the biosensor surface, i.e. via a covalently coupled rabbit anti-mouse Fc antibody. Monomeric soluble human PD-1 was then injected to saturating levels over the immobilized antibodies in the buffer 10 mM Hepes, 150 mM NaCl pH 7.4. Following injection of the soluble PD-1, the buffer only was injected, allowing dissociation of the bound soluble PD-1 from each of the antibodies simultaneously. Dissociation rates were fitted using Origin v.5.0 software (MicroCal Software Inc, Northampton, Mass.) after subtraction of the dissociation rate for OX-7 dissociating from the anti-mouse Fc antibody.

[2] = target: T2, human PD-1 extracellular region / murine CD28 chimera, mutant R118D, on HEK-293T cells (human; mouse, UniProt Q15116 25-170; P31041 151-218, R118D); experiment: flow cytometry on transfected HEK-293T cells
T2 construct: extracellular domain;domain: transmembrane and intracellular regions; Single-residue 'drastic' mutant of m4
Protocol: (§1) Constructs encoding the human extracellular region of PD-1 with the transmembrane and intracellular regions of murine CD28 were cloned into the bi-cistronic mammalian expression vector pGFP2-n2 from BioSignal Packard Ltd, which also encodes GFP. Mutant constructs varying by one amino acid were prepared using the “drastic” mutagenesis approach (Davis et al. Proc Natl Acad Sci USA. 95, 5490-4 (1998)). Plasmids (2 μg/well) were transfected into HEK-293T cells in 6 well plates using Genejuice transfection reagent (Novagen; 6 μl/well). Mock and no-transfection controls were included with each experiment. Cells were harvested at 18-24 hours and stained with anti-PD1 antibodies or isotype controls at 10 μg/ml in PBS-azide for 1 h at 4° C. Cells were washed with PBS-Azide, pelleted at 1500 rpm/5 min and primary antibodies were labelled with Alexa647-conjugated donkey anti-mouse IgG (5 μg/ml) in PBS-Azide for 30 min at 4° C. Cells were washed as above and resuspended in 200 μl PBS-Azide before being analysed at the flow cytometer. Propidium iodide (5 μg/ml) was added immediately prior to analysis to identify dead cells. GFP-positive (transfected) viable cells were gated and analysed for binding of anti-PD1 antibodies. Mutants were defined as ‘knock-out’ (reducing the percentage of cells bound by the anti-PD1 antibody) or ‘knock-down’ (reducing the intensity of antibody staining relative to other PD-1 antibodies).
(§2) Following transfection, cells analysed at the flow cytometer were 85-90% viable by propidium iodide exclusion. Transfection efficiencies ranged from 15-50% (GFP⁺). Isotype controls were negative on all transfectants. […] V18R partially eliminates Clone 19 binding.

[3] = target: T3, human PD-1 extracellular region / murine CD28 chimera, mutant V18R, on HEK-293T cells (human; mouse, UniProt Q15116 25-170; P31041 151-218, V18R); experiment: flow cytometry on transfected HEK-293T cells
T3 construct: extracellular domain;domain: transmembrane and intracellular regions; Single-residue 'drastic' mutant of m4
Protocol: as §1, §2

[4] = target: T4, human PD-1 extracellular region / murine CD28 chimera, mutant L16R, on HEK-293T cells (human; mouse, UniProt Q15116 25-170; P31041 151-218, L16R); experiment: flow cytometry on transfected HEK-293T cells
T4 construct: extracellular domain;domain: transmembrane and intracellular regions; Single-residue 'drastic' mutant of m4
Protocol: as §1, §2

T4 sequence (Q15116 other isoform, or with tags, fused parts or gaps L16R | L16R L16R): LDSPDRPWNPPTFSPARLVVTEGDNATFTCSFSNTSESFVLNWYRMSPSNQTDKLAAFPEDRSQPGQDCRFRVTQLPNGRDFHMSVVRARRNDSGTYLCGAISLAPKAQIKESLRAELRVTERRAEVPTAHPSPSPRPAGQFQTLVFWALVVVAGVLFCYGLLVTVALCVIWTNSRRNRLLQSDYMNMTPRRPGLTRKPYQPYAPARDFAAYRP
T2 sequence (Q15116 other isoform, or with tags, fused parts or gaps R118D | R118D R118D): as the sequence (Q15116 other isoform, or with tags, fused parts or gaps L16R | L16R L16R) above, with R17L, R119D counted along it
T3 sequence (Q15116 other isoform, or with tags, fused parts or gaps V18R | V18R V18R): as the sequence (Q15116 other isoform, or with tags, fused parts or gaps L16R | L16R L16R) above, with R17L, V19R counted along it
T1 sequence (Q15116 25-170 limits assumed): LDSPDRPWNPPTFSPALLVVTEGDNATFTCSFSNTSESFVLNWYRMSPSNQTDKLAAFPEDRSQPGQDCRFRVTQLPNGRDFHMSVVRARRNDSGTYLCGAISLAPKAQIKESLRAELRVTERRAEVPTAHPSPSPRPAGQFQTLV

| Binder | binding result [1] | binding result [2] | binding result [3] | binding result [4] |
| --- | --- | --- | --- | --- |
| B1 | binds | – | – | – |
| B2 | – | no binding (tested: 10 µg/ml) | binds | no binding (tested: 10 µg/ml) |
| B3 | – | binds | binds | binds |

Source: patent publication US20110171220A1 (ISIS INNOVATION, published 2011)
